In US20210032365A1 (Chugai, published 2021):
Numbering of substitutions follows the chain as printed. Names and notes keep the numbering of the source.

T1: Serum-derived human C1s (human, UniProt P09871 16-688)
T1 construct: The analyte was C1s purified from serum; also called hC1s
T1 sequence: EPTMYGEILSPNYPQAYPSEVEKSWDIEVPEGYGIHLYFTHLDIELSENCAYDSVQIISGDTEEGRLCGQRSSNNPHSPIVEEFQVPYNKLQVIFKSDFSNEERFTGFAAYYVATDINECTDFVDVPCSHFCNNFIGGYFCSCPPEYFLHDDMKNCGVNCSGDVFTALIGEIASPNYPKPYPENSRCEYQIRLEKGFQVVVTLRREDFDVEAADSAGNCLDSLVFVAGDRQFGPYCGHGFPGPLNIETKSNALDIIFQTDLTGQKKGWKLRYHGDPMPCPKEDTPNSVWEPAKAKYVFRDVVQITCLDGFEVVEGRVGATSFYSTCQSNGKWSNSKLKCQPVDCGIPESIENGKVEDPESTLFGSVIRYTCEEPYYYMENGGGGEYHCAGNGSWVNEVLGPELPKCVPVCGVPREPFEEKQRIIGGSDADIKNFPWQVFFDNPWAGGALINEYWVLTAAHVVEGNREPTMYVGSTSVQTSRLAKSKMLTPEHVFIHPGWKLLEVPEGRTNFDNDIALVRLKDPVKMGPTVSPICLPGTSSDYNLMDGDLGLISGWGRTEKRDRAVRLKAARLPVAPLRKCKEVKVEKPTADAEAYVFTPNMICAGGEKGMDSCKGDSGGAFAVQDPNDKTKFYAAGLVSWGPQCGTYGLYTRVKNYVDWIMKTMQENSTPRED

T2: human C1s (human, UniProt P09871 16-688)
T2 construct: also called hC1s; serum-derived human C1s (CompTech)
T2 sequence: T1 sequence

T3: human C1s (human, UniProt P09871 16-688)
T3 construct: Analyte in the Biacore assays; also called hC1s; serum-derived human C1s (CompTech)
T3 sequence: T1 sequence

B1: IPN92H0307/IPN93L0058-SG136 (antibody, human IgG1, kappa)
heavy: EVMLVESGGGLVKPGGSLRLSCAASGFEFENYAMSWVRQAPGKGLEWVATISSGGSHTYELDSVDGRFTISRDNSKDTLYLQMNSLRAEDTALYYCARLFTKHAMDYWGQGTLVTVSSASTKGPSVFPLAPSSKSTSGGTAALGCLVKDYFPEPVTVSWNSGALTSGVHTFPAVLQSSGLYSLSSVVTVPSSSLGTQTYICNVNHKPSNTKVDKKVEPKSCDKTHTCPPCPAPELRRGPSVFLFPPKPKDTLMISRTPEVTCVVVDVSHEDPEVKFNWYVDGVEVHNAKTKPREEQYNSTYRVVSVLTVLHQDWLNGKEYKCKVSNKGLPSSIEKTISKAKGQPREPQVYTLPPSREEMTKNQVSLTCLVKGFYPSDIAVEWESNGQPENNYKTTPPVLDSDGSFFLYSKLTVDKSRWQQGNVFSCSVMHEALHNHYTQKSLSLSP
light: QIVLTQSPATLSLSPGERATLSCTASSEVSSSYLHWYQQKPGKAPKLWIYSTSNLASGVPSRFSGSGSGTDYTLTISSLQPEDFATYYCHQYYRLHPITFGQGTKLEIKRTVAAPSVFIFPPSDEQLKSGTASVVCLLNNFYPREAKVQWKVDNALQSGNSQESVTEQDSKDCTYSLSSTLTLSKADYEKHKVYACEVTHQGLSSPVTKSFNRGEC
B2: C1_IPN009VH2-SG4GK/IPN93L0021-SK1 (antibody, human IgG4 S228P, kappa, name in Kabat numbering)
heavy: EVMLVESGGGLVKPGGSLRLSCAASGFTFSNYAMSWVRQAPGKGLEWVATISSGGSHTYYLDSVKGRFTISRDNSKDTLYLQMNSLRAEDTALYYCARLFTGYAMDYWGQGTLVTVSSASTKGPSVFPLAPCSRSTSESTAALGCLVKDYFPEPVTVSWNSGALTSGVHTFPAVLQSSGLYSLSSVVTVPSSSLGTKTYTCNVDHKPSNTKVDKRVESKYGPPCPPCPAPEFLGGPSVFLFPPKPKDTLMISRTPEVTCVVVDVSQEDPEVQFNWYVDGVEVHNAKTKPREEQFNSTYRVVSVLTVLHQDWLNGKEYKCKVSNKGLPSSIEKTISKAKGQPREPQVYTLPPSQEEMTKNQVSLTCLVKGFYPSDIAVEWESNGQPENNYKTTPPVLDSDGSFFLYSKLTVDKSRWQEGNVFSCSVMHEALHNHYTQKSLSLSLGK
light: B1 light with E28S, Y93H, H96P, C173S
notes: also called IPN009VH2/IPN93L0021
B3: C1_IPN009VH2-SG4GK/IPN93L0024-SK1 (antibody, human IgG4 S228P, kappa)
heavy: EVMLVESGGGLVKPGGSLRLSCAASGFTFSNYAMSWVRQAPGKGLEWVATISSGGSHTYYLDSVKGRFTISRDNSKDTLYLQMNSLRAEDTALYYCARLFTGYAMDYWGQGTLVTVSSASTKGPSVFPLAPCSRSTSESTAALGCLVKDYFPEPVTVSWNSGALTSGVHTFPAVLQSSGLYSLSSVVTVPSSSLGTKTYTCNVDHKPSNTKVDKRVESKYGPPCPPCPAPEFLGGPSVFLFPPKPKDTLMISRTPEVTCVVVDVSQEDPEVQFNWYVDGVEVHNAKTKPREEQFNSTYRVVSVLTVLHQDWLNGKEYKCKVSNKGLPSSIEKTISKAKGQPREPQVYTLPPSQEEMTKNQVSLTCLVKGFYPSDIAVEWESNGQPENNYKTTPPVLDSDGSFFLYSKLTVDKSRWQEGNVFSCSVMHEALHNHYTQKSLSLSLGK
light: B1 light with E28S, C173S
notes: VL = IPN009VK3 with P95H (Kabat); also called IPN009VH2/IPN93L0024
B4: C1_IPN009VH2-SG4GK/IPN93L0023-SK1 (antibody, human IgG4 S228P, kappa, name in Kabat numbering)
heavy: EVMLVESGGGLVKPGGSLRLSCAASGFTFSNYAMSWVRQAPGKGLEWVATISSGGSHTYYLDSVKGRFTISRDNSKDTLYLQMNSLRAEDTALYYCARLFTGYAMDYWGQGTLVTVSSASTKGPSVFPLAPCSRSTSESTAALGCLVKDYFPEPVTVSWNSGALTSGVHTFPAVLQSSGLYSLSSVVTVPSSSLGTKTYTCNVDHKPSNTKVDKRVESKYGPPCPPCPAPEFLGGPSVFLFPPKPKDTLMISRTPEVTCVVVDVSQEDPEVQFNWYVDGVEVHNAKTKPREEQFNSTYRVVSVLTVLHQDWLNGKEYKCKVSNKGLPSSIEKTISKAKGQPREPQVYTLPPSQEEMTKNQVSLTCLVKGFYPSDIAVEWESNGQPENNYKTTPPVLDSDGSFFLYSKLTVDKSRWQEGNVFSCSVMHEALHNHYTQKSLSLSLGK
light: B1 light with E28S, L95H, H96P, C173S
notes: also called IPN009VH2/IPN93L0023
B5: IPN009VH2/IPN009VK3-SG136 (antibody, human IgG1, kappa)
heavy: B1 heavy with E28T, E30S, E60Y, D65K, K102G, H103Y
light: B1 light with E28S, H96P
notes: also called IPN009VH2/IPN009VK3 (lot PPU2040)
B6: IPN92H0033/IPN009VK3-SG136 (antibody, human IgG1, kappa)
heavy: B1 heavy with E28T, E30S, E60Y, D65K, K102G
light: B1 light with E28S, H96P
notes: also called IPN92H0033/IPN009VK3 (lot PPU2041)
B7: IPN009VH2/IPN93L0021-SG136 (antibody, human IgG1, kappa, name in Kabat numbering)
heavy: B1 heavy with E28T, E30S, E60Y, D65K, K102G, H103Y
light: B1 light with E28S, Y93H, H96P
notes: also called IPN009VH2/IPN93L0021 (lot PPU2042)
B8: IPN009VH2/IPN93L0024-SG136 (antibody, human IgG1, kappa)
heavy: B1 heavy with E28T, E30S, E60Y, D65K, K102G, H103Y
light: B1 light with E28S
notes: also called IPN009VH2/IPN93L0024 (lot PPU2044)
B9: IPN92H0288/IPN93L0211-SG136 (antibody, human IgG1, kappa)
heavy: B1 heavy with E28T, E30S
light: B1 light with S31E
notes: also called IPN92H0288/IPN93L0211 (lot PPU2049)
B10: IPN92H0288/IPN93L0058-SG136 (antibody, human IgG1, kappa)
heavy: B1 heavy with E28T, E30S
light: B1 light
notes: also called IPN92H0288/IPN93L0058 (lot PPU2050)
B11: IPN92H0307/IPN93L0058-SG136 (antibody, human IgG1, kappa)
heavy: B1 heavy
light: B1 light
notes: also called IPN92H0307/IPN93L0058 (lot PPU2051)
B12: IPN92H0033/IPN93L0024-SG136 (antibody, human IgG1, kappa)
heavy: B1 heavy with E28T, E30S, E60Y, D65K, K102G
light: B1 light with E28S
notes: also called IPN92H0033/IPN93L0024 (lot PPU2046)

Target: T1, Serum-derived human C1s
Assay: SPR Biacore T200, 37 C, antibody captured on protein A/G, pH 5.8, 1.2 mM CaCl2
Description: (§1) The binding affinity of all histidine-substituted variants at pH 7.4 and pH 5.8 were determined at 37 degrees C. using Biacore T200 instrument (GE Healthcare). Recombinant Protein A/G (Pierce) was immobilized onto all flow cells of a CM4 sensor chip using amine coupling kit (GE Healthcare). Antibodies and analytes were prepared in 7(+) buffer (20 mM ACES, 150 mM NaCl, 1.2 mM CaCl2, 0.05% Tween 20, 0.005% NaN3, pH 7.4) or 5(+) buffer (20 mM ACES, 150 mM NaCl, 1.2 mM CaCl2), 0.05% Tween 20, 0.005% NaN3, pH 5.8). Each antibody was captured onto the sensor surface by protein A/G. Antibody capture levels were aimed at 200 resonance unit (RU). […] Sensor surface was regenerated each cycle with 10 mM Glycine-HCl pH 1.5. […] An additional dissociation phase at pH 5.8 was integrated immediately after the dissociation phase at pH 7.4. This dissociation rate in 5(+) buffer was determined by processing and fitting data using Scrubber 2.0 (BioLogic Software) curve fitting software.

Row | koff [s⁻¹] | kon [M⁻¹ s⁻¹] | Binder
1 | 0.0121 | 318000 | B1

Target: T1, Serum-derived human C1s
Assay: SPR Biacore T200, 37 C, antibody captured on protein A/G, pH 7.4, 1.2 mM CaCl2
Description: as §1

Row | kon [M⁻¹ s⁻¹] | Binder
2 | 391000 | B1

Target: T2, human C1s
Assay: SPR; KD pH 5.8 3 uM Ca / KD pH 7.4 1.2 mM Ca
Description: (§2) All variants were transiently expressed and purified by the method described above. The binding affinity of each histidine-substituted variant at pH 7.4 and pH 5.8 was determined at 37 degrees C. using Biacore T200 instrument (GE Healthcare). Recombinant Protein A/G (Pierce) was immobilized onto all flow cells of a CM4 sensor chip using an amine coupling kit (GE Healthcare). Antibodies and analytes were prepared in 7(+) buffer (20 mM ACES, 150 mM NaCl, 1.2 mM CaCl2, 0.05% Tween 20, 0.005% NaN3, pH 7.4), 5(+) buffer (20 mM ACES, 150 mM NaCl, 1.2 mM CaCl2, 0.05% Tween 20, 0.005% NaN3, pH 5.8), or 5(−) buffer (20 mM ACES, 150 mM NaCl, 3 micro M CaCl2, 0.05% Tween 20, 0.005% NaN3, pH 5.8). Each antibody was captured onto the sensor surface by protein A/G. Antibody capture levels were aimed at 200 resonance unit (RU). Serum-derived human C1s (CompTech) or recombinant C1s prepared in EXAMPLE 1 was injected at 50 nM, followed by dissociation. The sensor surface was regenerated in each cycle with 10 mM Glycine-HCl, pH 1.5. […] The ratio of KD 5.8+ to KD 7.4+(“KD 5+/7+”) and that of KD 5.8− to KD 7.4+(“KD 5−/7+”) were calculated. When the KD 5+/7+ or KD 5−/7+ of a variant is larger than that of the parent antibody IPN009VH2-SG4GK/IPN009VK3-SK1, that variant is considered to be “pH”- or “pH and Ca”-dependent, respectively. When binding response in 5(+) buffer and/or in 5(−) buffer of a variant is much lower than that of IPN09VH2/IPN009VK3, that variant is also considered as “pH”- and/or “pH and Ca”-dependent. Therefore, such mutations are effective to generate “pH”- and/or “pH and Ca”-dependent antibody. To further enhance “pH” and/or “pH and Ca” dependency, a combination of histidine mutations was conducted. Antibodies with combinations of histidine mutations were evaluated using Biacore by the method described above.

Row | KD 5(-)/7(+) | Binder
3 | 3.6 | B2
4 | 9.1 | B3
5 | 6.3 | B4

Target: T2, human C1s
Assay: SPR, Ab captured; pH 5.8, 3 uM Ca
Description: as §2

Row | Kd [nM] | koff [s⁻¹] | kon [M⁻¹ s⁻¹] | Binder
6 | 9.54 | > 0.1 |  | B2
7 |  | 0.132 | 5.92e+06 | B3
8 | 13.8 | 0.092 | 6.67e+06 | B4

Target: T3, human C1s
Assay: SPR; KD at pH 5.8 over KD at pH 7.4, both 1.2 mM Ca
Description: as §1, with “software. […]” for “software.”

Row | KD (5.8+)/KD (7.4+) | Binder
9 | 0.4 | B5
10 | 0.9 | B6
11 | 1.5 | B7
12 | 1.3 | B8
13 | 74.9 | B9
14 | 65.6 | B10
15 | 28.4 | B11
16 | 4.7 | B12

Target: T1, Serum-derived human C1s
Assay: SPR Biacore T200, 37 C, ratio of dissociation rates pH 5.8 / pH 7.4, 1.2 mM CaCl2
Description: as §1

Row | koff (5.8+ of 775+)/koff (7.4+) | Binder
17 | 28.8 | B1

Target: T2, human C1s
Assay: SPR, Ab captured; pH 7.4, 1.2 mM Ca
Description: as §2

Row | Kd [nM] | koff [s⁻¹] | kon [M⁻¹ s⁻¹] | Binder
18 | 2.68 | 0.000898 | 335000 | B2
19 |  | 0.000574 | 233000 | B3
20 | 2.18 | 0.000725 | 332000 | B4

Target: T2, human C1s
Assay: SPR, Ab captured; pH 5.8, 1.2 mM Ca
Description: as §2

Row | Kd [nM] | koff [s⁻¹] | kon [M⁻¹ s⁻¹] | Binder
21 | 3.21 | 0.00203 | 632000 | B2
22 |  | 0.00149 | 384000 | B3
23 | 1.83 | 0.00131 | 716000 | B4

Target: T3, human C1s
Assay: SPR (Biacore T200, 37C), Ab captured on protein A/G, serum C1s 12.5 and 50 nM; pH 7.4, 1.2 mM Ca
Description: as §1

Row | koff [s⁻¹] | Binder
24 | 0.000411 | B5
25 | 0.00038 | B6
26 | 0.00058 | B7
27 | 0.000612 | B8
28 | 0.00052 | B9
29 | 0.000408 | B10
30 | 0.000523 | B11
31 | 0.000571 | B12

Target: T2, human C1s
Assay: SPR; KD pH 5.8 1.2 mM Ca / KD pH 7.4 1.2 mM Ca
Description: as §2

Row | KD 5(+)/7(+) | Binder
32 | 1.2 | B2
33 | 1.6 | B3
34 | 0.8 | B4

Target: T3, human C1s
Assay: SPR; koff (5.8+ of 775+): extra dissociation phase at pH 5.8 (1.2 mM Ca) right after the pH 7.4 dissociation, Scrubber fit
Description: as §1

Row | koff [s⁻¹] | Binder
35 | 8.86e-05 | B5
36 | 0.000265 | B6
37 | 0.0011 | B7
38 | 0.000741 | B8
39 | 0.0282 | B9
40 | 0.0158 | B10
41 | 0.0151 | B11
42 | 0.0029 | B12

Target: T1, Serum-derived human C1s
Assay: SPR Biacore T200, 37 C, ratio of KD pH 5.8 / pH 7.4, 1.2 mM CaCl2
Description: as §1, with “software. […]” for “software.”

Row | KD (5.8+)/KD (7.4+) | Binder
43 | 28.4 | B1
